Reference: patent US5385885A, “Inhibition of smooth muscle cell proliferation by antistasin and tick anticoagulant peptide” (priority 1991, dated 1995)

Assays:
[1] = tested on: rat aortic smooth muscle cells; test: Mitogenic activity of blood coagulation factors on smooth muscle cells (3H-thymidine incorporation); format: cell-based, Wistar rats; conditions: 24 h
Method: Primary smooth muscle cell cultures were prepared from the thoracic and abdominal aorta of 2-3 month old Wistar rats essentially using the procedure of Reilly, C. […] After removing as much fat and adherent adventitia as possible with scissors and forceps, the tissue was finely minced, enzymatically dissociated with successive 37° C. incubations in HBSS containing collagenase (Sigma, 0.5 mg/ml for 15 min.), then elastase (Sigma, 0.125 mg/ml for 30 min.) and again collagenase (60 min.). […] Cells were grown in Dulbecco's Minimal Essential Medium (DMEM) containing 10% fetal bovine serum (FBS) with antibiotics. […] Using a monoclonal antibody to alpha actin (Sigma Chemical Company, St. Louis, Mo.), about 60-80% (preparation dependent) of these confluent cells stained positive for this smooth muscle cell marker. After 10 days in culture, the cells were dissociated with trypsinethylene diamine tetraacetate (EDTA), split 1:10 and subcultured in the above medium. At confluence the cells were transferred to DMEM containing 0.1 % FBS for a 24 hour period before using them for assay. All smooth muscle cells used in these studies were from passages 1-4.
The prepared rat smooth muscle cells were seeded in Falcon 24 multiwell plates (10^5 cells/well) and cultured at 37° C., in a 5% CO2 atmosphere in 1 ml DMEM containing 10% FBS. […] At the end of the incubation, the cultures were washed twice with DMEM and pulsed for two hours in ^3 H-thymidine (1 μCi/ml) in DMEM containing 0.1% BSA. The cells were washed twice with cold phosphate buffered saline (PBS), treated twice with 5% trichloroacetic acid (TCA) for 5 min., dissolved with 0.25N NaOH (0.4 ml) incubated at 37° C. for 60 min., mixed with 5 ml Ecolume (ICN Biomedicals, Costa Mesa, Calif.), and their radioactivity determined in a scintillation counter. All assays were in triplicate. Error bars represent the standard error of the mean (S.E.M. with n=6 or more experiments). Smooth muscle cell mitogenic activity produced by exogenous agents is expressed as % relative mitogenic activity which is defined as: [formula] […]

[2] = tested on: rat aortic smooth muscle cells; test: Comparison of 3H-thymidine incorporation and cell proliferation in rat aortic smooth muscle cell cultures; format: cell-based; conditions: 10 mM factor, 36 hours treatment
Method: Rat smooth muscle cells were incubated with different blood coagulation factors to determine ^3 H-thymidine incorporation and effect cell number. […] At the end of the incubation, half of the groups were pulsed with ^3 H-thymidine for two hours while their identically treated counterparts were dissociated with trypsin and the cells (smooth muscle cells on the basis of a reddish-brown staining pattern with Masson's trichome) were counted. Although there was not a direct correspondence between the per cent increase in thymidine incorporation and cell number, the increase in DNA synthesis correlated well with an increase in cell number. bovine factor Xa increased cell proliferation in a dose dependent manner. 10 mM Protein S induced greater cell proliferation than 50 mM bovine factor Xa.

[3] = tested on: human venous endothelial cells; test: Release of mitogens from endothelial cells stimulated with factor Xa; conditioned media tested for mitogenic activity on 3T3 cells; format: cell-based; conditions: for Mitogenic units of EC conditioned media: 1 unit = activity induced by 2 ng/ml PDGF, FXa 1 nM, ATS 5 nM, PDGF 2 ng/ml, 16 h
Method: Confluent primary cultures or subcultures (passages 1 and 2) of human venous endothelial cells (EC) were cultured in serum-free Dulbecco's Minimal Essential Medium (DMEM)+0.1% bovine serum albumin (BSA) in the presence of human or bovine factor Xa(1 nM) (Sigma Chemical Co., St. Louis, Mo.), antistasin (ATS) (0.5-5.0 nM), or both. Control cultures were untreated or received 2 ng/ml platelet-derived growth factor (PDGF) (Sigma Chemical Co., St. Louis, Mo.). After 16 hours incubation at 37° C., the conditioned media (CM) from the test and control cell cultures were collected and tested for mitogenic activity (MIT) using confluent NIH 3T3 cells (CCL 163, American Type Culture Collection, Rockville, Md.).
Primary cultures of EC derived from umbilical cord veins were prepared and grown according to a protocol provided to by Dr. Gwendolyn Stewart (Temple University Thrombosis Center, Phila., Pa.). After washing the lumen of the vein twice with DMEM, EC were dissociated with a solution containing 0.05% trypsin and 0.1% collagenase. Thirty minutes later, the venous content and the perfused DMEM (35 ml) was collected into a fifty ml centrifuge tube containing 3.5 ml of bovine serum and the mixture spun at 900 rpm for 10 minutes. The supernate was discarded and the cell pellet resuspended in 3.0 ml DMEM containing 20% fetal bovine serum (FBS) (heat inactivated at 56° C. for 30 minutes), 90 μg heparin per ml, 5 μg fibronectin per ml, and 60 μg endothelial growth factor per ml (cDMEM), and seeded into 35 mm tissue culture dishes. After 24 hours of incubation at 37 °C, 5% CO2, the culture was washed 3-4 times with DMEM and incubated 2-4 days until the cells were confluent. The monolayers were washed with phosphate buffered saline (PBS) and cultured in DMEM with 0.1% BSA in the presence and absence of 1 nM factor Xa, 5 nM antistasin, or a mixture of both. As positive and negative controls, separated monolayers were incubated with the medium plus 2 ng/ml PDGF or with the medium alone. After 16 hours of incubation at 37° C., conditioned media (CM) were collected, centrifuged at 4000×g for 10 minutes, and the supernate was collected and stored at 4° C. until use. The mitogenic activity of the CM was tested by measuring the incorporation of [^3 H] thymidine into cultures of Balb 3T3 cells. For this purpose, wells were seeded with 2×10^4 3T3 cells suspended in 1 ml DMEM with 10% FBS. Once confluent (5-7 days of culture), CM were added and cells incubated for 18 hours at 37° C. after which cultures were washed with warm DMEM, tritiated thymidine added (1 μCi/ml) and cells incubated for 4 hours at 37° C. After removing the medium, the culture was washed twice with cold 5% trichloroacetic acid (TCA), and lysed with 0.8 ml 0.25M NaOH. The lysate was transferred to vials with scintillation fluid and radioactivity monitored in a beta radiation counter.
One unit of mitogenic activity is defined as the mitogenic activity induced by 2 ng/ml PDGF. Each assay was performed in triplicate and the standard deviation was less than 10%.

3T3 cells = test: Direct antistasin treatment of 3T3 cells, proliferation; format: cell-based
smooth muscle cells [4] = test: Effect of antistasin and tick anticoagulant peptide on factor Xa induced mitogenesis of smooth muscle cells; format: cell-based, rat; conditions: FIG. 2
Method: Primary smooth muscle cell cultures were prepared from the thoracic and abdominal aorta of 2-3 month old Wistar rats essentially using the procedure of Reilly, C. F. (1990) J. Cell Physiol. 142,342 (1990). After removing as much fat and adherent adventitia as possible with scissors and forceps, the tissue was finely minced, enzymatically dissociated with successive 37° C. incubations in HBSS containing collagenase (Sigma, 0.5 mg/ml for 15 min.), then elastase (Sigma, 0.125 mg/ml for 30 min.) and again collagenase (60 min.). […] Cells were grown in Dulbecco's Minimal Essential Medium (DMEM) containing 10% fetal bovine serum (FBS) with antibiotics. […] Using a monoclonal antibody to alpha actin (Sigma Chemical Company, St. Louis, Mo.), about 60-80% (preparation dependent) of these confluent cells stained positive for this smooth muscle cell marker. After 10 days in culture, the cells were dissociated with trypsinethylene diamine tetraacetate (EDTA), split 1:10 and subcultured in the above medium. At confluence the cells were transferred to DMEM containing 0.1 % FBS for a 24 hour period before using them for assay. […]
(§1) The prepared rat smooth muscle cells were seeded in Falcon 24 multiwell plates (10^5 cells/well) and cultured at 37° C., in a 5% CO2 atmosphere in 1 ml DMEM containing 10% FBS. […] The cells were washed twice with cold phosphate buffered saline (PBS), treated twice with 5% trichloroacetic acid (TCA) for 5 min., dissolved with 0.25N NaOH (0.4 ml) incubated at 37° C. for 60 min., mixed with 5 ml Ecolume (ICN Biomedicals, Costa Mesa, Calif.), and their radioactivity determined in a scintillation counter. […] Smooth muscle cell mitogenic activity produced by exogenous agents is expressed as % relative mitogenic activity which is defined as: [formula] […]
The effects of antistasin and tick anticoagulant peptide on factor Xa induced mitogenesis of smooth muscle cells were tested using the method shown in Example 4. […] At the end of the 24 hour incubation, ^3 H-thymidine incorporation into DNA was monitored and smooth muscle cell mitogenic activity was assessed as described in Example 4.

smooth muscle cells [5] = test: Effect of factor Xa inhibitors on human protein S and bovine factor X induced smooth muscle cell mitogenesis; format: cell-based, rat; conditions: FIG. 3
Method: Primary smooth muscle cell cultures were prepared from the thoracic and abdominal aorta of 2-3 month old Wistar rats essentially using the procedure of Reilly, C. F. (1990) J. Cell Physiol. 142,342 (1990). After removing as much fat and adherent adventitia as possible with scissors and forceps, the tissue was finely minced, enzymatically dissociated with successive 37° C. incubations in HBSS containing collagenase (Sigma, 0.5 mg/ml for 15 min.), then elastase (Sigma, 0.125 mg/ml for 30 min.) and again collagenase (60 min.). […] Cells were grown in Dulbecco's Minimal Essential Medium (DMEM) containing 10% fetal bovine serum (FBS) with antibiotics. […]
as §1

[6] = FIG. 1, 10 nM coagulation factor

B1: protein S: human protein S, coagulation cascade factor (Enzyme Res. Labs) (protein, UniProt P07225 42-676, looked up)
Vitamin K-dependent protein S: ANSLLEETKQGNLERECIEELCNKEEAREVFENDPETDYFYPKYLVCLRSFQTGLFTAARQSTNAYPDLRSCVNAIPDQCSPLPCNEDGYMSCKDGKASFTCTCKPGWQGEKCEFDINECKDPSNINGGCSQICDNTPGSYHCSCKNGFVMLSNKKDCKDVDECSLKPSICGTAVCKNIPGDFECECPEGYRYNLKSKSCEDIDECSENMCAQLCVNYPGGYTCYCDGKKGFKLAQDQKSCEVVSVCLPLNLDTKYELLYLAEQFAGVVLYLKFRLPEISRFSAEFDFRTYDSEGVILYAESIDHSAWLLIALRGGKIEVQLKNEHTSKITTGGDVINNGLWNMVSVEELEHSISIKIAKEAVMDINKPGPLFKPENGLLETKVYFAGFPRKVESELIKPINPRLDGCIRSWNLMKQGASGIKEIIQEKQNKHCLVTVEKGSYYPGSGIAQFHIDYNNVSSAEGWHVNVTLNIRPSTGTGVMLALVSGNNTVPFAVSLVDSTSEKSQDILLSVENTVIYRIQALSLCSDQQSHLEFRVNRNNLELSTPLKIETISHEDLQRQLAVLDKAMKAKVATYLGGLPDVPFSATPVNAFYNGCMEVNINGVQLDLDEAISKHNDIRAHSCPSVWKKTKNS
With B1 the “% relative mitogenic activity above control” value [1, 6] was “about 122%”, the “SMC Number” value [2] was 6.5 × 10^5 and the “CPM Incorporated (3H-thymidine)” value ([2]; 2 h pulse) was 30,074 ± 2,837 CPM.

B2: Factor IX: bovine coagulation factor IX (protein, UniProt P00741 26-462, looked up)
Coagulation factor IX: AECTVFLDRENATKILHRPKRYNSGKLEEFVRGNLERECKEEKCSFEEAREVFENTEKTTEFWKQYVDGDQCESNPCLNGGMCKDDINSYECWCQAGFEGTNCELDATCSIKNGRCKQFCKRDTDNKVVCSCTDGYRLAEDQKSCEPAVPFPCGRVSVSHISKKLTRAETIFSNTNYENSSEAEIIWDNVTQSNQSFDEFSRVVGGEDAERGQFPWQVLLHGEIAAFCGGSIVNEKWVVTAAHCIKPGVKITVVAGEHNTEKPEPTEQKRNVIRAIPYHSYNASINKYSHDIALLELDEPLELNSYVTPICIADRDYTNIFLKFGYGYVSGWGKVFNRGRSASILQYLKVPLVDRATCLRSTKFSIYSHMFCAGYHEGGKDSCQGDSGGPHVTEVEGTSFLTGIISWGEECAMKGKYGIYTKVSRYVNWIKEKTKLT
With B2 the “% relative mitogenic activity above control” value [1, 6] was “only weakly mitogenic”.

B3: platelet derived growth factor BB: recombinant platelet-derived growth factor-BB, a good mitogen for smooth muscle cells (protein, UniProt P01127 82-190, looked up)
Platelet-derived growth …: SLGSLTIAEPAMIAECKTRTEVFEISRRLIDRTNANFLVWPPCVEVQRCSGCCNNRNVQCRPTQVQLRPVQVRKIEIVRKKPIFKKATVTLEDHLACKCETVAAARPVT
modifications: homodimer
notes: recombinant platelet-derived growth factor-BB, a good mitogen for smooth muscle cells
For B3, the “% relative mitogenic activity above control” value ([1]; FIG. 1, 0.1 nM PDGF-BB) was “about 63%”.

B4: antistasin (protein, UniProt P15358 18-136, looked up)
Antistasin: QGPFGPGCEEAGCPEGSACNIITDRCTCSGVRCRMHCPHGFQRSRYGCEFCKCRLEPMKATCDISECPEGMMCSRLTNKCDCKIDINCRKTCPNGLKRDKLGCEYCECRPKRKLIPRLS
notes: 119-amino acid protein isolated from the salivary glands of the Mexican leech Haementeria officinalis
B4 was tested, and the “Mitogenic units of EC conditioned media” value ([3]; EXP 1) was 0.74 mitogenic units, the “Mitogenic units of EC conditioned media” value ([3]; EXP 2) was 0.42 mitogenic units and the “Mitogenic units of EC conditioned media” value ([3]; EXP 3) was 0.70 mitogenic units. The “Mitogenic units of EC conditioned media” value ([3]; EXP 4) was 0.36 mitogenic units, the “Release of mitogens from endothelial cells” value ([3]; antistasin 0.5-10 nM) was “blocks the release of mitogens” and the “Effect on proliferation of 3T3 cells” value (3T3 cells) was “no significant effect”. For the same molecule, the “Relative mitogenic activity above control” value (smooth muscle cells [4]; 10 nM fXa and 5 nM antistasin) was “about 23%”, the “Relative mitogenic activity above control” value (smooth muscle cells [4]; 10 nM fXa and 10-20 nM antistasin) was “about 2%” and the “Relative mitogenic activity above control” value (smooth muscle cells [4]; 10 nM fXa with 40-50 nM antistasin) was “near zero”. The “Inhibition of relative mitogenic activity of bovine factor X” value (smooth muscle cells [5]; 10 nM bovine factor X with 50 nM antistasin) was “not significantly inhibited” and the “Inhibition of relative mitogenic activity of protein S” value (smooth muscle cells [5]; protein S with 50 nM antistasin) was “abolished”.
